This passage reports Km results from patent publication US20080194522A1, “Development of Fluorogenic Substrates For Monoamine Oxidases (Mao-A and Mao-B)” (priority 2004, published 2008).

Read-outs that look alike come from different tables or passages of the source.

Substrate in this series: NCCc1cc2oc(=O)ccc2cc1N
The experiment in a line: purified protein, by the assay type.

B1: MAO-B (Bos taurus) (protein)
chain: MSSKCDVVVVGGGISGMAAAKLLHDSGLNVIVLEARDRVGGRTYTLRNQKVKYVDLGGSYVGPTQNHILRLSKELGLETYKVNEVERLIHHTKGKSYPFRGSFPSVWNPITYLDHNNLWRTMDDMGREIPSDAPWKAPLAEQWDLMTMKELLDKICWTESSKQLAILFVNLCVTAEIHEVSALWFLWYVKQCGGTTRIFSTSNGGQERKFVGGSGQVSERIMDLLGDRVKLERPVIHIDQTGENVLVETLNHELYEAKYVISAVPPVLGMKIHFNPPLPMMRNQLITRVPLGSVIKSIVYYKEPFWRNMDYCGSMIIEGEEAPVAYALDDTKPDGSYPAIIGFILAHKARKLARLTKEERLKKLCDLYAKVLGSQEALHPVHYEEKNWCEEQYSGGCYTSYFPPGIMTQYGRVLRQPVGRIYFAGTETATHWSGYMEGAVEAGERAAREILHAMGKIPEDEIWLPEPESVDVPAKPITTTFLQRHLPSVPGLLKLIGLTTIFSATALGFLAHKRGLLVRI
Regarding B1, the Km amounted to 510 ± 40 µM. For the same protein, the Km (pH 7.4) worked out at 13 µM.

B2: MAO-A (Homo sapiens) (protein)
chain: MENQEKASIAGHMFDVVVIGGGISGLSAAKLLTEYGVSVLVLEARDRVGGRTYTIRNEHVDYVDVGGAYVGPTQNRILRLSKELGIETYKVNVSERLVQYVKGKTYPFRGAFPPVWNPIAYLDYNNLWRTIDNMGKEIPTDAPWEAQHADKWDKMTMKELIDKICWTKTARRFAYLFVNINVTSEPHEVSALWFLWYVKQCGGTTRIFSVTNGGQERKFVGGSGQVSERIMDLLGDQVKLNHPVTHVDQSSDNIIIETLNHEHYECKYVINAIPPTLTAKIHFRPELPAERNQLIQRLPMGAVIKCMMYYKEAFWKKKDYCGCMIIEDEDAPISITLDDTKPDGSLPAIMGFILARKADRLAKLHKEIRKKKICELYAKVLGSQEALHPVHYEEKNWCEEQYSGGCYTAYFPPGIMTQYGRVIRQPVGRIFFAGTETATKWSGYMEGAVEAGERAAREVLNGLGKVTEKDIWVQEPESKDVPAVEITHTFWERNLPSVSGLLKIIGFSTSVTALGFVLYKYKLLPRS
With B2, the Km stood at 30.9 ± 1.8 µM. Besides, for the setting “pH 7.4”, the Michaelis constant (Km) was found to be 31 µM.
